Experimental data taken from patent US5612190.

Target: group I phospholipase A2
Test: 125I-PLA2-I binding in COS7 culture supernatant, polyethylene glycol coprecipitation

- Kd: 0.8 nM
B1: secretion type PLA2-I receptor protein (receptor)
chain: ETAAWAVTPERLREWQDKGIFIIQSENLEKCIQASKSTLTLENCKPPNKYMLWKWVSNHRLFNIGGSGCLGLNVSSPEQPLSIYECDSTHVSLKWHCNKKTITGPLQYLVQVKQDNTLVASRKYLHKWVSYMSGGGGICDYLHKDLYTIKGNAHGTPCMFPFQYNQQWHHECTREGREDNLLWCATTSRYERDEKWGFCPDPTSTEVGCDAVWEKDLHSRICYQFNLLSSLSWSEAHSSCQMQGAALLSIADETEENFVRKHLGSEAVEVWMGLNQLDEDAGWQWSDRTPLNYLNWKPEINFEPFVEYHCGTFNAFMPKAWKSRDCESTLPYVCKKYLNPTDHGVVEKDAWKYYATHCEPGWNPHNRNCYKLQKEKKTWNEALQSCQSNNSVLTDITSLAEVEFLVTLLGDENASETWIGLSSHKIPVSFEWSNGSSVTFTNWHTLEPHIFPNRSQLCVSAEQSEGHWKVKNCEETLFYLCKKTGLVLSDTESGCQKGWERHGKFCYKIDTVLRSFDHASSGYYCPPALITITSRFEQAFITSLISSVVKTKDTYFWIALQDQNNTGEYTWKTAGQQLEPVKYTHWNTRQPRYSGGCVVMRGRSHPGRWEVRDCRHFKAMSLCKQPVENREKTKQEEGWPFHPCYLDWESEPGLASCFKVFHSEKVLMKRTWRQAEEFCEEFGAHLASFAHIEEENFVNELLHSKFNRTEERQFWIGFNKRNPLNAGSWEWSDGTPVVSSFLDNSYFGEDARNCAVYKANKTLLPSYCGSKREWICKIPRDVRPKVPPWYQYDAPWLFYQDAEYLFHISASEWSSFEFVCGWLRSDILTIHSAHEQEFIHSKIRALSKYGVNWWIGLREERASDEFRWRDGSPVIYQNWDKGKERSMGLNESQRCGFISSITGLWASEECSISMPSICKRKKVWVIEKKKDIPKQHGTCPKGWLYFDYKCLLLKIPEGPSDWKNWTSAQDFCVEEGGTLVAIENEVEQAFITMNLFGHTTNVWIGLQDDDYEKWLNGRPVSYSNWSPFDTKNIPNHNTTEVQKRIPLCGLLSNNPNFHFTGKWYFEDCREGYGFVCEKMQDASGHSINTSDMYPIPNTLEYGNRTYKIINANMTWYTALKTCLMHGAELASITDQYHQSFLTVILNRVGYAHWIGLFTEDNGLSFDWSDGTKSSFTFWKDDESSFLGDCVFADTSGRWSSTACESYLQGAICQVPTETRLSGRLELCSETSIPWIKFKSNCYSFSTVLESTSFEAAHEFCKKKGSNLLTIKDEAENSFLLEELLAFRSSVQMIWLNAQFDGDNETIKWFDGTPTDQSNWGIRKPEVYHFKPHLCVALRIPEGVWQLSSCQDKKGFICKMEADIHTVKKHPGK
